Among the data in US20120100166A1 (ZYNGENIA, published 2012) are binding result and EC50 values, retold here.

What is called EC50 is the concentration at which the effect is half-maximal. The low end stands for higher potency in that assay, the high end for lower potency in that assay.

No end group written: not given here.

The chains are these.
T1: angiopoietin-2 (Ang2) (human, UniProt O15123 68-496, limits assumed, biotinylated in Examples 22-24 (R&D cat#BT633))
T1 construct: also called rhAng2; recombinant Ang2
T1 sequence (looked up): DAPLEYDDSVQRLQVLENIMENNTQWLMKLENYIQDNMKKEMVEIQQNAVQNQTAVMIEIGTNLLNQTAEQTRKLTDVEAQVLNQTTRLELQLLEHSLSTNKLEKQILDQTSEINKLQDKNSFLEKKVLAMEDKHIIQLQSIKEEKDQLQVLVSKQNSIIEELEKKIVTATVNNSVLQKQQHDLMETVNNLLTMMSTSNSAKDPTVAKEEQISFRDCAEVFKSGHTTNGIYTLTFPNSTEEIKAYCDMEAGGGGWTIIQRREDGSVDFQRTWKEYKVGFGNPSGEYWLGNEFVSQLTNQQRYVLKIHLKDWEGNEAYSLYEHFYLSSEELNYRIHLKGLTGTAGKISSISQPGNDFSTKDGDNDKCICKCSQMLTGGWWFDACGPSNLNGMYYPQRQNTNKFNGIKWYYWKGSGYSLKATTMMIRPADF

B1: Her-1L-RP (bispecific antibody)
light (part 1 of 2): not shown
light (part 2 of 2): SSGGGGSGGGGGGSSRSSSFYSCLESLVNGPAEKSRGQWDGCRKK
heavy: not shown
notes: also called Her-lL-RP; not shown: kappa light chain constant region; heavy chain constant region
B2: LM32 variant SEQ ID NO:142 expressed as MBP fusion protein (other, not shown: large carriers; small tags and cut ends)
chain: KSLSLSPGSGGGSMGAQTNFMPMDNDELLLYEQFI
modifications: not fully specified (N-terminus); also: fused to maltose binding protein carrier at N-terminus
B3: LM32 variant SEQ ID NO:143 expressed as MBP fusion protein (other, not shown: large carriers; small tags and cut ends)
chain: KSLSLSPGSGGGSMGAQTNFMPMDNEELLLYEQFI
modifications: not fully specified (N-terminus); also: fused to maltose binding protein carrier at N-terminus
B4: LM32 variant SEQ ID NO:88 expressed as MBP fusion protein (other, not shown: large carriers; small tags and cut ends)
chain: KSLSLSPGSGGGSMGAQTNFMPMDNDEGLLYEQFILQQGLE
modifications: not fully specified (N-terminus); also: fused to maltose binding protein carrier at N-terminus
B5: LM32 variant SEQ ID NO:91 expressed as MBP fusion protein (other, not shown: large carriers; small tags and cut ends)
chain: KSLSLSPGSGGGSMGAQTNFMPMDNDELTLYEQFILQQGLE
modifications: not fully specified (N-terminus); also: fused to maltose binding protein carrier at N-terminus
B6: LM32 variant SEQ ID NO:100 expressed as MBP fusion protein (other, not shown: large carriers; small tags and cut ends)
peptide: KSLSLSPGSGGGSMGAQTNFMPMDDDELLLYEQFILQQGLE
modifications: not fully specified (N-terminus); also: fused to maltose binding protein carrier at N-terminus
B7: LM32 variant SEQ ID NO:93 expressed as MBP fusion protein (other, not shown: large carriers; small tags and cut ends)
chain: KSLSLSPGSGGGSMGAQTNFMPMDNDEGLLYEQFIYQQGLE
modifications: not fully specified (N-terminus); also: fused to maltose binding protein carrier at N-terminus
B8: LM32 variant SEQ ID NO:96 expressed as MBP fusion protein (other, not shown: large carriers; small tags and cut ends)
chain: KSLSLSPGSGGGSMGAQTNFMPMDNDEGLLYEEFILQQGLE
modifications: not fully specified (N-terminus); also: fused to maltose binding protein carrier at N-terminus
B9: LM32 variant SEQ ID NO:97 expressed as MBP fusion protein (other, not shown: large carriers; small tags and cut ends)
chain: KSLSLSPGSGGGSMGAQTNFMPMDNDEALLYEEFILQQGLE
modifications: not fully specified (N-terminus); also: fused to maltose binding protein carrier at N-terminus
B10: LM32 variant SEQ ID NO:94 expressed as MBP fusion protein (other, not shown: large carriers; small tags and cut ends)
chain: KSLSLSPGSGGGSMGAQTNFMPMDNDEALLYEQFIYQQGLE
modifications: not fully specified (N-terminus); also: fused to maltose binding protein carrier at N-terminus
B11: LM32 variant SEQ ID NO:90 expressed as MBP fusion protein (other, not shown: large carriers; small tags and cut ends)
chain: KSLSLSPGSGGGSMGAQTNFMPMDNDEALLYEQFILQQGLE
modifications: not fully specified (N-terminus); also: fused to maltose binding protein carrier at N-terminus
B12: LM32 variant SEQ ID NO:99 expressed as MBP fusion protein (other, not shown: large carriers; small tags and cut ends)
chain: KSLSLSPGSGGGSMGAQTNFMPMDQDELLLYEQFILQQGLE
modifications: not fully specified (N-terminus); also: fused to maltose binding protein carrier at N-terminus
B13: L1-7D MHD (other)
chain: MGAQTNFMPMHDDELLLYEQFILQQGLE
B14: Lm32 KtoS (other)
chain: PGSGGGSMGAQTNFMPMDNDELLLYEQFILQQGLE
B15: L1-7D MGD (other)
chain: MGAQTNFMPMGDDELLLYEQFILQQGLE
B16: L1-7D MTD (other)
chain: MGAQTNFMPMTDDELLLYEQFILQQGLE
B17: L1-7D MND (other)
chain: MGAQTNFMPMNDDELLLYEQFILQQGLE
B18: L1-7D MSD (other)
chain: MGAQTNFMPMSDDELLLYEQFILQQGLE
B19: Her-sL-RGD4C (bispecific antibody)
light (part 1 of 2): not shown
light (part 2 of 2): GGGSCDCRGDCFC
heavy: not shown
notes: also called C-terminal fusion of integrin αvβ3 targeting MRD with the ErbB2 antibody with the short linker peptide; not shown: kappa light chain constant region; heavy chain constant region

One assay deals with T2, insulin-like growth factor-I receptor (IGF1R) (UniProt P08069 31-932, limits assumed).
T2 construct: also called immobilized IGF-1R; IGR1R
Description: ELISA on coated antigen, absorbance at 405 nm, BSA-coated wells as control; single condition. Background: An ELISA detects its analyte on a solid surface through an enzyme-linked reagent.
As to B1, the binding result is recorded as “no binding (tested: not shown)”.

In a further assay the target is T1, angiopoietin-2 (Ang2). The experiment in a line: MBP fusion protein tested for binding to Ang2; method not restated (direct-binding ELISA in Example 19).
Description: For detection of direct binding of MRD-MBP fusions to Ang2, the following ELISA was performed. […] MBP fusion proteins were serially diluted in Blocking buffer and added to wells for 2 hours at RT. After washing (8×300 μl wash buffer), samples were treated with HRP-mouse anti MBP mAb (NEB, cat #E8038S), diluted 1:4000 in Blocking buffer. After incubation for 1 hour at RT, wells were washed (8×3000 wash buffer) prior to receiving 100 μl of TMB substrate (KPL Laboratories). Color development was stopped with 100 μl of H₂SO₄, and absorbance was read at 450 nm.
For the molecule B2, the EC50 was found to be 1.08 nM.
Still for that read-out and setting: the value for B3 was 20.7 nM.
On the same count and under the same terms, the value for B4 was 1.04 nM; that for B5 was 1.42 nM; that for B6 was 0.24 nM.
Same read-out and setting: the value for B7 was 0.902 nM.
Regarding B8, a half-maximal response (EC50) required 0.922 nM.
Same read-out and setting: the value for B9 was 0.426 nM; that for B10 was 0.392 nM.
Same read-out and setting: the same measure for B11: 0.182 nM.
On the same count and under the same terms, the value for B12 was 0.383 nM.

The next assay addresses T1, angiopoietin-2 (Ang2). Description: ELISA, rhAng2 coated, MRD-MBP fusion detected with HRP anti-MBP mAb; EC50 from a 4 parameter fit.
B13 returned an EC50 of 17 nM.
On the same count and under the same terms, the same measure for B14: 0.199 nM; for B15: 0.6 nM; for B16: 7.34 nM.
Still for that read-out and setting: the value for B17 was 0.411 nM.
In turn, B18 returned an EC50 of 1.38 nM.

In the next assay the target is integrin αvβ3 (ELISA antigen) (UniProt P06756 31-992; P05106 27-718, limits assumed). The experiment in a line: ELISA on coated antigen, absorbance at 405 nm, BSA-coated wells as control; single condition; the bar is labelled Antigen, taken as the target of the MRD of the construct.
Sequence of integrin αvβ3 (ELISA antigen) (P06756 31-992 limits assumed, chain 1 of 2): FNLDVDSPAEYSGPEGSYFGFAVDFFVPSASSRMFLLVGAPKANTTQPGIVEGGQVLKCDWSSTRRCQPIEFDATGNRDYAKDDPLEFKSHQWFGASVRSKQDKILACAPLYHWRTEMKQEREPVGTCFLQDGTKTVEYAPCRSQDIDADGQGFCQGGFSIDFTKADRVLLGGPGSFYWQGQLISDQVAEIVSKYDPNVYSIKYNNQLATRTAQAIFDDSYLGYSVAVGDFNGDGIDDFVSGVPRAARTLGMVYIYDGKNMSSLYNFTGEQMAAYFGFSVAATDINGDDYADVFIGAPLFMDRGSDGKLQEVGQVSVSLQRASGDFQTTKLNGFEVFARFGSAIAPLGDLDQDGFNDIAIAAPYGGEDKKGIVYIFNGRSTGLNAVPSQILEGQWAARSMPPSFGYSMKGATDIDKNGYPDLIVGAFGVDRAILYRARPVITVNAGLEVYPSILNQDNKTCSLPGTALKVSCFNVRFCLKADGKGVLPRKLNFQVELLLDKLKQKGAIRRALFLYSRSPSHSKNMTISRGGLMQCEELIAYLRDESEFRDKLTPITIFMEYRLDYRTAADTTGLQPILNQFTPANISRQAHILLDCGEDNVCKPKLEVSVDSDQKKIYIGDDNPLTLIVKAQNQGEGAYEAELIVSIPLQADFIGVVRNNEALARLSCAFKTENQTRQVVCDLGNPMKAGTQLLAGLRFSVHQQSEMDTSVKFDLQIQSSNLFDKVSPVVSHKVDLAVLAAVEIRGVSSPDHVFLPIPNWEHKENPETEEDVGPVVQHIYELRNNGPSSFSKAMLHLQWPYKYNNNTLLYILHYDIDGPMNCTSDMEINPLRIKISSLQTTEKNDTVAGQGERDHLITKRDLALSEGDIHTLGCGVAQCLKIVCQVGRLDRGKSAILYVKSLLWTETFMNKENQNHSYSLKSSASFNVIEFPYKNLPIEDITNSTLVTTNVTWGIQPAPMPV
Sequence of integrin αvβ3 (ELISA antigen) (P05106 27-718 limits assumed, chain 2 of 2): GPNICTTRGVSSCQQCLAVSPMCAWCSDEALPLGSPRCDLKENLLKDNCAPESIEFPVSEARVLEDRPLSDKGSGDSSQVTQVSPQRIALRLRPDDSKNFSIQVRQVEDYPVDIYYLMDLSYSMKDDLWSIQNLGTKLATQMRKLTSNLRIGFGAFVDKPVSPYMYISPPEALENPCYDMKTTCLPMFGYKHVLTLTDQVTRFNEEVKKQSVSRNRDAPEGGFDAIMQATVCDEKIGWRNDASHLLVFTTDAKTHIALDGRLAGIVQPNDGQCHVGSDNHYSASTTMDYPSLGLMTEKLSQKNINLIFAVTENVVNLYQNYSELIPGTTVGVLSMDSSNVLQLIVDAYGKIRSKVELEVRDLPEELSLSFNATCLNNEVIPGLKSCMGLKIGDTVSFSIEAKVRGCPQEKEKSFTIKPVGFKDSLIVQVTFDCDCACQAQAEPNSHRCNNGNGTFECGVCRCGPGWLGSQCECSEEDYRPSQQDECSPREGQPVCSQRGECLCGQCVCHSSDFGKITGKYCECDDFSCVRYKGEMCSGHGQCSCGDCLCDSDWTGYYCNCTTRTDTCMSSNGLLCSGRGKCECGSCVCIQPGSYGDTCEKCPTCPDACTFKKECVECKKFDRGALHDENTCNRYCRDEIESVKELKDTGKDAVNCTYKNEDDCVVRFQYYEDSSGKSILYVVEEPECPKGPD
In the case of B19, the binding result is “no binding (tested: not shown)”.
